Experimental findings from patent US20240360208A1 (Hoffmann-La Roche, published 2024) are described below.

Test [1] deals with T1, human CCL2 (MCP1) - wild type (wt) (human, UniProt P13500 24-99).
T1 construct: Made in-house or bought (R&D Systems 279-MC), depending on the assay; can form dimers; also called wt human CCL2; WT human CCL2
Put plainly: SPR T200, 25 C, anti-human Fc capture, 1:1 model, pH 5.5. On the procedure: (§1) An antibody capture system was established. 13000 MAb<h-Fc-pan>M-R10Z8E9-IgG (Roche) were immobilized at 25° C. at 18 μg/ml in 10 mM sodium acetate buffer pH 5.0, by EDC/NHS coupling as described by the manufacturer. The capture system was regenerated by an injection at 20 μl/min with HBS buffer (100 mM HEPES pH 7.4, 1.5 M NaCl, 0.05% (w/v) Tween 20), followed by a 1 min 15 see injection with 10 mM NaOH and two 10 mM glycine buffer pH 2.5 injections for 1 min. Antibodies were captured were injected for 30 see at 10 μl/min at 80 nM concentration diluted in the respective system buffer. […] The analyte contact time was 3 min and the dissociation time was 10 min. Analyte kinetics were performed at 50 μl/min.
(§2) The Biaevaluation software V.3.0 was used according to the instructions of the manufacturer GEHC. A 1:1 binding model with RMAX local was applied to determine kinetic rates.

The target of test [2] is T1, human CCL2 (MCP1) - wild type (wt). Briefly: SPR T200, 25 C, anti-human Fc capture, 1:1 model, pH 7.4. On the procedure: as §1, §2
For test [3] the target is unchanged. Put plainly: cell-based or functional assay.
Test [4] shares this target. Briefly: SPR T200, 25 C, anti-human Fc capture, 1:1 model, pH 7.9. How it is done:
as §1, §2

Test [5] has the same target. Briefly: SPR T200, 25 C, anti-human Fc capture, 1:1 model, pH 6.3.
Test [6] has the same target. Briefly: SPR T200, 25 C, anti-human Fc capture, 1:1 model, pH 6.7.
The target of test [7] is T2, human CCL8 (MCP2) - wild type (wt) (human, UniProt P80075 24-99).
T2 construct: also called huCCL8
T2 sequence: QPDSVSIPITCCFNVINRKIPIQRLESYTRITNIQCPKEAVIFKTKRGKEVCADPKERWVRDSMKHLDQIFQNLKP
Briefly: SPR (Biacore T200), 25 °C, ACES pH 7.4; antibody captured on anti-human IgG (Fc), chemokine injected at 5 nM and 20 nM. How it is done: (§3) Biacore assay method: The binding of anti-CCL2 antibodies to the CCL homologs e.g. CCL2 (MCP-1), CCL8 (MCP-2), CCL7 (MCP-3), and CCL13 (MCP-4) were assessed at 25° C. using Biacore T200 instrument (GE Healthcare). Mouse anti-human IgG (Fc) (GE Healthcare) was immobilized on each flow cells of a CM4 sensor chip using amine coupling kit (GE Healthcare) according to the recommended settings by the manufacturer. Antibodies and analytes were diluted into ACES pH 7.4 buffer (20 mM ACES, 150 mM NaCl, 1 mg/ml BSA, 0.05% Tween 20, 0.005% NaN3). Antibodies were captured onto the anti-Fc sensor surfaces, then recombinant human CCL homologs proteins was injected over the flow cell at 5 nM and 20 nM. […] Sensor surface was regenerated each cycle with 3M MgCl2. Binding sensorgram was processed using Biacore T200 Evaluation software, version 2.0 (GE Healthcare).

Test [8] deals with T3, human CCL7 (MCP3) - wild type (wt) (human, UniProt P80098 24-99).
T3 construct: Bought from R&D Systems for the homolog assay
Described as above. How it is done: as §3

Test [9] has as its target T1, human CCL2 (MCP1) - wild type (wt). Briefly: SPR T200, 25 C, anti-human Fc capture, 1:1 model, pH 7.1. How it is done: as §1, §2
For test [10] the target is unchanged. Briefly: SPR T200, 25 C, anti-human Fc capture, 1:1 model, pH 8.3. On the procedure: as §1, §2
Test [11] has the same target. Put plainly: SPR T200, 25 C, anti-human Fc capture, 1:1 model, pH 5.9. How it is done: as §1, §2
Test [12] shares this target. Briefly: cell-based or functional assay. This is another data set of the same source.
For test [13] the target is unchanged. Briefly: SPR T200, 25 C, anti-human Fc capture, 1:1 model, pH 8.3; pH 8.3.
The target of test [14] is T4, human CCL2 (MCP1) - P8A variant (human, UniProt P13500 24-99).
T4 construct: In-house point mutant that cannot dimerise; also called monomeric human CCL2; monomeric CCL2
Put plainly: SPR T200, 37 C, antibody captured, 1:1 model. In short, it runs like this: (§4)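 Antibodies from clone supernatants were captured for 1 min, then wild-type or monomeric P8A CCL2 was injected at up to 90 nM at 30 μl/min. Association lasted 3 min and dissociation 10 min. Kinetic rates were fitted with local Rmax.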

Test [15] has as its target T1, human CCL2 (MCP1) - wild type (wt). Put plainly: SPR T200, 37 C, antibody captured, 1:1 model. In short, it runs like this:
as §4

The target of test [16] is T4, human CCL2 (MCP1) - P8A variant. Put plainly: SPR T200, 37 C, anti-human Fc capture, 1:1 model, pH 5.8. On the procedure:
(§5) Anti-human Fc (GE Healthcare) was immobilized on each flow cells of a CM4 sensor chip using amine coupling kit (GE Healthcare) according to the recommended settings by the manufacturer. Antibodies and analytes were diluted into ACES pH 7.4 or pH 5.8 buffer (20 mM ACES, 150 mM NaCl, 1 mg/ml BSA, 0.05% Tween 20, 0.005% NaN3). […] Sensor surface was regenerated each cycle with 3M MgCl2.

For test [17] the target is unchanged. Put plainly: SPR T200, 37 C, anti-human Fc capture, 1:1 model, pH 7.4. On the procedure: as §5
Test [18] shares this target. Put plainly: SPR T200, 37 C. How it is done: as §5
Test [19] has as its target T5, human CCL8 (MCP2) - P8A variant (human, UniProt P80075 24-99).
T5 construct: Proline 8 of mature CCL8 (NP_005614.2) mutated to alanine; also called monomeric human CCL8; CCL8 P8A variant (monomer)
T5 chain: T2 sequence with P8A
Put plainly: SPR T200, 37 C, anti-human Fc capture, 1:1 model, pH 7.4; pH 7.4. How it is done:
as §5

Test [20] deals with T4, human CCL2 (MCP1) - P8A variant. Put plainly: SPR (Biacore T200), 37 °C, ACES pH 7.4; antibody captured on anti-human Fc, monomeric human CCL2 at 8 nM; response normalised to capture level. How it is done: as §5

Numbering of substitutions follows the chain as printed.

B1: Humanized 11K2 (=11K2) (antibody, IgG1, V domains shown)
VH: QVQLVQSGAEVKKPGSSVKVSCKASGLTISDTYMHWVRQAPGQGLEWMGRIDPANGNTKFDPKFQGRVTITADTSTSTAYMELSSLRSEDTAVYYCARGVFGFFDYWGQGTTVTVSS
VL: DIQMTQSPSSLSASVGDRVTITCKATEDIYNRLAWYQQKPGKAPKLLISGATSLETGVPSRFSGSGSGTDYTLTISSLQPEDFATYYCQQFWSAPYTFGGGTKVEIK
notes: IgG1 with kappa light chain; also called CCL2-0002; humanized 11k2 IgG1
As for B1, the Kd worked out at 10 pM in [1]; 20 pM in test [2]; 20 pM in [4]; 3 pM in test [5]; 10 pM in test [6]; 10 pM in [9]. Also, the Kd in test [11] is 10 pM; in [13], at most 3 pM; in test [14] it was 35 pM; in test [15] it was 28 pM. Further, the “t 1/2-diss.” value in [1] stood at 1.97 h; in test [2] it was 2.72 h; in test [4], 2.75 h; in [5], 19.2 h; in test [6], 4.87 h; in test [9], 3.58 h. Moreover, the “t 1/2-diss.” value in test [10] came out at 19.2 h; in [11], 4.78 h. In addition, the “IC50, inhibition of THP-1 migration (chemotaxis assay)” value in test [3] was 0.7 µg/mL. The figures for the binding result in test [7] and in test [8] were “binds” and “no binding (tested: 20 nM)”, respectively. In addition, the “THP1 chemotaxis [fold change compared to IgG control]” value in test [12] stood at 7.2 fold. Further, the results for the “T1/2” value in test [14] and in [15] were 1.93 h and 1.97 h, respectively.

B2: CKLO03 (IgG1 wild type) (bispecific antibody, V domains shown)
VH 1: B1 VH with D31H, A54D, G56H, Y106H
VL 1: B1 VL with S49H, T56H, W92R
VH 2: QVQLVQSGAEVKKPGSSVKVSCKASGGTFSHYGISWVRQAPGQGLEWMGGVIPIFHTANYAQKFQGRVTITADESTSTAYMELSSLRSEDTAVYYCARYDAHYGELDFWGQGTLVTVSS
VL 2: EIVLTQSPATLSLSPGERATLSCRASQHVSDAYLAWYQQKPGQAPRLLIYDASDRAEGVPARFSGSGSGTDFTLTISSLEPEDFAVYYCHQYIHLHSFTFGQGTKVEIK
notes: CrossMab, IgG1 wild type with knobs-into-holes; also called CKLO3; 11K2H1503/11K2L1201//CNTO888H0695/CNTO888L0616
As to B2, the Kd in test [16] turned out to be 21700 pM; in [17], 6.85 pM. Besides, the “fold weaker KD at pH 5.8 than at pH 7.4” value in test [18] was over 1000 fold.

B3: CKLO01 (IgG1 wild type) (bispecific antibody, V domains shown)
VH 1: B1 VH with D31H, A54D, G56H, Y106H
VL 1: B1 VL with T26F, L33R, S49H, T56H
VH 2: B2 VH 2
VL 2: B2 VL 2
notes: also called CKLO1; 11K2H1503/11K2L1338//CNTO888H0695/CNTO888L0616
Consider B3, for which the Kd in test [19] was determined as 23300 pM.

B4: CKLO04 (IgG1 wild type) (bispecific antibody, V domains shown)
VH 1: B1 VH with D31H, A54D, G56H, Y106H
VL 1: B1 VL with S49H, T56H, W92R
VH 2: B2 VH 2 with V51I, P53H
VL 2: B2 VL 2
notes: CrossMab, IgG1 wild type with knobs-into-holes; also called CKLO4; 11K2H1503/11K2L1201//CNTO888H0625/CNTO888L0616
As for B4, the binding result in [20] is “binds”.
